Source: article PMC4222845 (PLoS Pathogens, 2014)

Target: the molecule itself
Assay: SEC; Superdex 200 10/300 GL, 10 mM Tris-HCl pH 7.5, 150 mM NaCl, 0.5 mL/min, 4°C; equivalent molar concentrations, incubated 15 minutes; molecular weight from BioRad gel-filtration standards

B1: IpgC (natural protein)
chain: MSLNITENESISTAVIDAINSGATLKDINAIPDDMMDDIYSYAYDFYNKGRIEEAEVFFRFLCIYDFYNVDYIMGLAAIYQIKEQFQQAADLYAVAFALGKNDYTPVFHTGQCQLRLKAPLKAKECFELVIQHSNDEKLKIKAQSYLDAIQDIKE
notes: also called translocator-specific chaperone from Shigella
stoichiometry N: 2
